In paper PMC10576055 one finds pEC50 of GIP (1-42) for β-arr1 recruitment (BRET) data, which are given here for one molecule.

The experiment addresses T1, GIPR-Rluc8 (human), P48546.
T1 chain: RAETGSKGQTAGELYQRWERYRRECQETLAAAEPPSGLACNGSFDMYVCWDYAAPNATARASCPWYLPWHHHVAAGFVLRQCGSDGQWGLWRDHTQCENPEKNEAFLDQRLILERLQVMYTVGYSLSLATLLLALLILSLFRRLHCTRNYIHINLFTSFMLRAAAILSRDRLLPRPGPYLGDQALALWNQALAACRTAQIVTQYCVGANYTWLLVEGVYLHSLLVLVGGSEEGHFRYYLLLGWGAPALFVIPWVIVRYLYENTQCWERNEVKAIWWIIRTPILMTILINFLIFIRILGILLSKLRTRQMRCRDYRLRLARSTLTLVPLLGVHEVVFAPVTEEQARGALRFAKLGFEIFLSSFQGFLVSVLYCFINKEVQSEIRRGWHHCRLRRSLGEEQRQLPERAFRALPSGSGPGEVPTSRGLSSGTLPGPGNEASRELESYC
As to the kind of experiment: FRET or BRET. The following applies: remark: other sources report otherwise. A general note: In BRET a luciferase serves as donor, and the signal depends on an acceptor being close.

Several values for one entry are separate records, joined by “and”; a condition that tells them apart may be missing. Equal values may be shown once.

B1: Venus-β-arrestin 1, P49407 1-418 (natural protein)
chain: MGDKGTRVFKKASPNGKLTVYLGKRDFVDHIDLVDPVDGVVLVDPEYLKERRVYVTLTCAFRYGREDLDVLGLTFRKDLFVANVQSFPPAPEDKKPLTRLQERLIKKLGEHAYPFTFEIPPNLPCSVTLQPGPEDTGKACGVDYEVKAFCAENLEEKIHKRNSVRLVIRKVQYAPERPGPQPTAETTRQFLMSDKPLHLEASLDKEIYYHGEPISVNVHVTNNTNKTVKKIKISVRQYADICLFNTAQYKCPVAMEEADDTVAPSSTFCKVYTLTPFLANNREKRGLALDGKLKHEDTNLASSTLLREGANREILGIIVSYKVKVKLVVSRGGLLGDLASSDVAVELPFTLMHPKPKEEPPHREVPENETPVDTNLIELDTNDDDIVFEDFARQRLKGMKDDKEEEEDGTGSPQLNNR
For the molecule B1, the pEC50 of GIP (1-42) for β-arr1 recruitment (BRET) was 7.7 and 7.94 and 7.67.
